US20210002363A1 (PHANES THERAPEUTICS, published 2021)
Substitutions are numbered along the chain they refer to.

Key:
[1] = biological target: T1, full-length human FOLR1 on stably transfected CHO cells (human, UniProt P15328 25-234); assay: FACS on CHO cells stably expressing full-length human FOLR1; PE goat anti-mouse IgG; MFI
T1 construct: also called CHO cells stably expressing human FOLR1
Method: CHO cells stably transfected with full-length human FOLR1 were transferred to a 96-well plate at 200,000 cells/well, washed once with FACS buffer (1×PBS, pH6.8+2% FBS) and incubated with purified mouse anti-FOLR1 mAbs from hybridoma supernatants at various concentrations for 15 minutes on ice. Cells were then centrifuged at 1,000 rpm for 5 minutes and washed with FACS buffer three times. The cells were incubated with PE-conjugated goat anti-mouse IgG polyclonal antibodies and incubated on ice for another 15 minutes. Cells were then washed with FACS buffer three times and then resuspended in FACS buffer containing 0.1 μg/ml PI (propidium iodide) for live/dead cell gating. Cells were then run through the FACS Caliber instrument and the data were analyzed by the Flowjo software. MFI, mean fluorescence intensity.

[2] = biological target: T2, Recombinant extracellular domain of human FOLR1 (Novoprotein, Cat#: C784) (human, UniProt P15328 25-233, limits assumed); assay: SPR (Biacore 8k), mAb captured on protein A chip, recombinant FOLR1 as analyte, 1:1 model
T2 construct: Bought reagent; also called recombinant FOLR1; immobilized FOLR1 extracellular domain
Method: The interaction of the chimeric anti-FOLR1 mAbs and FOLR1 was measured by Surface Plasmon Resonance (SPR) (Biacore 8k, GE Healthcare). Briefly, an anti-FOLR1 mAb was immobilized to a protein A sensor chip (GE Healthcare, Cat#: 29-1275-56) in HBS-P buffer (0.01 M HEPES pH 7.4, 0.15 M NaCl, 0.05% v/v Surfactant P20) with an injection flow rate at […]. The recombinant FOLR1 (Novoprotein, Cat#: C784) at variant concentrations was loaded with the flow rate of 30 μL/min in HBS-P buffer. Following antigen loading, the surface was regenerated with 10 mM glycine-HCl (pH 1.5). Sensor grams were fit with a 1:1 binding model using Biacore 8k evaluation software (GE Healthcare).

[3] = biological target: T3, FOLR1 on SK-OV-3 cells (ATCC HTB-77) (Homo sapiens (Human), UniProt P15328 25-234); assay: FACS on SK-OV-3 cells; Alexa Fluor 488 F(ab')2 goat anti-human IgG Fc; MFI
T3 construct: Endogenous FOLR1 of the cell line; also called cells that are known to express FOLR1
Method: To assess the binding of the chimeric anti-FOLR1 mAbs to cells that are known to express FOLR1, SK-OV-3 (ATCC® HTB-77™) cells were plated at 80,000 cells per well on a 96-well non-binding U-bottom plate (Greiner Bio-One, Cat#: 650901). In some experiments, 90,000 cells per well were used. The cells were incubated in 50 μL FACS buffer (HBSS with 0.1% BSA and 0.05% sodium azide) containing mAbs at different concentrations on ice for 15 minutes. After wash, cells were incubated in 50 μL FACS buffer containing 3.5 μg/mL F(ab′)2-Goat anti-Human IgG Fc conjugated to Alexa Fluor® 488 (Invitrogen, Cat#: H10120) on ice for 15 minutes in dark and washed again. Cells were analyzed using an Attune NxT flow cytometer. MFI, mean fluorescence intensity.

[4] = biological target: T2, Recombinant extracellular domain of …; assay: ELISA on plate-coated recombinant human FOLR1 extracellular domain; anti-human IgG-HRP; O.D. 450 nm
Method: The Purified chimeric mAbs were tested in an ELISA assay for their ability to bind to immobilized human FOLR1. Recombinant extracellular domain of human FOLR1 (Novoprotein, Cat#: C784) in carbonate coating buffer was coated on a 96-well plate at room temperature for 1 hour. The plate is blocked by 5% BSA in TBST for 1 hour at room temperature. In each well of an individual plate, mAbs at various concentrations were incubated for 1 hour at room temperature. The plate was washed and the binding to FOLR1 was detected by anti-human IgG conjugated to horseradish peroxidase (hIgG-HRP) (ThermoFisher Scientific, Cat#: H10007) with incubation for 1 hour at room temperature. Then after washing, the ELISA was developed using One-step Detection Solution (ThermoFisher Scientific, Cat#: 34028) and measured as the absorbance at 450 nm.

[5] = biological target: T2, Recombinant extracellular domain of …; assay: ELISA on immobilized FOLR1 extracellular domain; O.D. 450 nm
[6] = biological target: T2, Recombinant extracellular domain of …; assay: as above; remark: listed apart in the source
[7] = biological target: T3, FOLR1 on SK-OV-3 cells (ATCC HTB-77); assay: FACS on SK-OV-3 cells; MFI
[8] = biological target: T2, Recombinant extracellular domain of …; assay: ELISA on immobilized FOLR1 extracellular domain; O.D. 450 nm; remark: listed apart in the source
[9] = biological target: T2, Recombinant extracellular domain of …; assay: as above; remark: listed apart in the source
[10] = biological target: T3, FOLR1 on SK-OV-3 cells (ATCC HTB-77); assay: FACS on SK-OV-3 cells; MFI; remark: listed apart in the source
[11] = biological target: T3, FOLR1 on SK-OV-3 cells (ATCC HTB-77); assay: FACS on SK-OV-3 cells; MFI; remark: listed apart in the source

T3 sequence (P15328 25-234 limits assumed): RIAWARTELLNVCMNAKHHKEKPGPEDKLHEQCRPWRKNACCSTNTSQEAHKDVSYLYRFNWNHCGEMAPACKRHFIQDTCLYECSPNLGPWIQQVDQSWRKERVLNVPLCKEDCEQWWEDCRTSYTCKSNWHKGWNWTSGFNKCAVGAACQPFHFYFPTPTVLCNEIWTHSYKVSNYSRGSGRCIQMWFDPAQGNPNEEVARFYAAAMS
T1 sequence (P15328 25-234 limits assumed): as above
T2 sequence (P15328 25-233 limits assumed): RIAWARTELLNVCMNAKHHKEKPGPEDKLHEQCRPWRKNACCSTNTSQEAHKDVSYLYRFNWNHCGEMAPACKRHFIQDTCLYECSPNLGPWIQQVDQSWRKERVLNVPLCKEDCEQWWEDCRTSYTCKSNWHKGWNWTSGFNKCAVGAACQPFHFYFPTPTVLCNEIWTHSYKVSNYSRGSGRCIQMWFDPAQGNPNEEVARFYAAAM

B1: mouse anti-FOLR1 mAb F17 (purified from hybridoma supernatant) (antibody, V domains shown)
VH: DVQLVESGGGLVQPGGSRKLSCAASGFTFSDFGMHWIRQAPERGLEWVAYMSYTPGTFHYADTVKDRFFISRDNAKNTLFLQMTSLRSDDTAMYYCARVHVGTVDYWGQGTSVTVSS
VL: DVVLTQSPATLSVTPGDSVSLSCRASQNINNNLHWFQQKSHESPRLLIKYASQSISGIPSRFSGSGSGTDFTLSINNVETEDFGIYFCQQSNSWPALTFGTGTKVELK
notes: Mouse antibody from hybridoma, purified on Protein A, detected with anti-mouse IgG; also called mAb clone F17
For B1, the “EC50 (read off the curve)” value [1] was ~0.3 µg/mL.

B2: chimeric anti-FOLR1 mAb F5 (antibody, V domains shown)
VH: EVQLVESGGELVKPGGSLKLSCAVSGFTFSNYGMSWVRQTPDKRLEWVATISSGGSYTYYPDSVKGRFTISRDNDKNTLYLQMSSLKSEDTAMYYCSTQGSSGYVGYWGQGTTLTVSS
VL: DIQMTQSPSSLSAFLGGKVTITCKASQDITNFIGWYQHKPGKGPRLLISYTSILESGIPSRFSGSGSGRDYSFSISNLEPEDIATYYCLQYYNLWTFGGGTKLEIK
notes: also called Chimeric mAb F5
With B2 the Kd [2] was 0.352 nM, the “EC50 (read off the curve)” value [3] was ~0.4 nM and the “EC50 (read off the curve)” value [4] was ~0.1 nM. The “EC50 (read off the curve)” value [5] was 0.2 to 0.3 nM and the “EC50 (read off the curve)” value [6] was 0.1 to 0.2 nM.

B3: mouse anti-FOLR1 mAb F7 (purified from hybridoma supernatant) (antibody, V domains shown)
VH: EFQLQQSGPELVKPGASVKISCKASGYSFTDYNMNWVKQSNGKSLEWIGVIDPNYGTTNYNQKFVGKATLTVDQSSITAYMQLNSLTAEDSAVYFCAIKGYGNPAAYWGQGTLVTVSA
VL: B2 VL with F14S, T30N, N31K, F32Y, I33L, G34A, K39E, S49R
notes: Mouse antibody from hybridoma, purified on Protein A, detected with anti-mouse IgG; also called mAb clone F7
For B3, the “EC50 (read off the curve)” value [1] was ~0.1 µg/mL.

B4: F20-H3L1 (antibody, V domains shown)
VH: QVQLVQSGAEVKKPGSSVKVSCKASGYTFASYYLYWVRQAPGQGLEWIGEINPRSGGTNFNEKFKSKATVTVDKSTNTAYMELSSLRSEDTAVYYCSRSGRLRGFYTMDYWGQGTLVTVSS
VL: DIVMTQSPDSLAVSLGERATINCKAGENVGSYVSWYQQKPGQPPKLLIYGASNRYTGVPDRFSGSGSATDFTLTISSLQAEDVAVYYCGQTYRFLTFGQGTKVEIK
notes: also called humanized F20 mAb H3L1
For B4, the “EC50 (read off the curve)” value [7] was 1 to 2 nM.

B5: F20-H1L1 (antibody, V domains shown)
VH: B4 VH with K67R, N77S
VL: B4 VL
notes: also called humanized F20 mAb H1L1
For B5, the “EC50 (read off the curve)” value [7] was 1 to 2 nM.

B6: F20-H2L3 (antibody, V domains shown)
VH: B4 VH with K67R, K74A, N77S
VL: DIQMTQSPSTLSASVGDRVTITCKAGENVGSYVSWYQQKPGKAPKLLIYGASNRYTGVPARFSGSGSATEFTLTISSLQPDDFATYYCGQTYRFLTFGQGTKVEVK
notes: also called humanized F20 mAb H2L3
In the case of B6, the “EC50 (read off the curve)” value [8] is reported as ~0.3 nM.

B7: F20-H1L4 (antibody, V domains shown)
VH: B4 VH with K67R, N77S
VL: B6 VL with D81E
notes: also called humanized F20 mAb H1L4
In the case of B7, the “EC50 (read off the curve)” value [9] is reported as ~0.3 nM.

B8: F20-H3L2 (antibody, V domains shown)
VH: B4 VH
VL: B4 VL with P43S
notes: also called humanized F20 mAb H3L2
With B8 the “EC50 (read off the curve)” value [7] was 1 to 2 nM.

B9: F20-H3L4 (antibody, V domains shown)
VH: B4 VH
VL: B6 VL with D81E
notes: also called humanized F20 mAb H3L4
In the case of B9, the “EC50 (read off the curve)” value [10] is reported as ~1 nM and the “EC50 (read off the curve)” value [9] is reported as ~0.3 nM.

B10: mouse anti-FOLR1 mAb F4 (purified from hybridoma supernatant) (antibody, V domains shown)
VH: EVQLVESGGGLVKPGGSLKLSCAASGFTFSDYGMHWVRQAPEKGLEWVAFISSGSNTIYYADIVKGRFAISRDNAKNTLFLQMASLRSEDTALYYCARLAEWDVAYWGQGTLVTVSA
VL: DIVLTQSPATLSVTPGDRISLSCRASQNINNNLHWYQQKSHESPRLLIKFASQSISGIPSRFSGSGSGTDFTLNINGVETEDFGMYFCQQIYSWPQLTFGAGTRLELK
notes: Mouse antibody from hybridoma, purified on Protein A, detected with anti-mouse IgG; also called mAb clone F4
With B10 the “EC50 (read off the curve)” value [1] was ~1 µg/mL.

B11: mouse anti-FOLR1 mAb F8 (purified from hybridoma supernatant) (antibody, V domains shown)
VH: EVMLVESGGGLVKPGGSLKLSCVASGFTLSTYAMSWVRQTPEKRLEWVATISGGGGDTYHLDTVKGRFTISRDNAKNTLYLQMSSLRSEDTALYYCARQSHYGSSYYFDNWGQGTTLTVSS
VL: DIQMTQSPASLSASVGEIVTIICRVSENIDSYLAWYQQKQGKSPQLLVYAATNLADGVPSRFSGSGSGSQYSLKINSLQSEDVARYYCQHYYTTPPTFGGGTKLDIK
notes: Mouse antibody from hybridoma, purified on Protein A, detected with anti-mouse IgG; also called mAb clone F8
For B11, the “EC50 (read off the curve)” value [1] was ~0.5 µg/mL.

B12: F5-H2L1 (antibody, V domains shown)
VH: EVQLVESGGGLVQPGGSLRLSCAVSGFTFSNYGMSWVRQAPGKGLEWVATISSGGSYTYYPDSVKGRFTISRDNSKNTLYLQMNSLRAEDTAVYYCSTQGSSGYVGYWGQGTLVTVSS
VL: DIQMTQSPSSVSASVGDRVTITCKASQDITNFIGWYQHKPGKAPKLLISYTSILESGVPSRFSGSGSGRDYTLTISSLQPEDFATYYCLQYYNLWTFGGGTKVEIK
notes: also called humanized F5 mAb H2L1
B12 was tested, and the “EC50 (read off the curve)” value [6] was ~0.3 nM.

B13: F5-H1L1 (antibody, V domains shown)
VH: B12 VH with V5L
VL: B12 VL
notes: also called humanized F5 mAb H1L1
With B13 the “EC50 (read off the curve)” value [6] was ~0.4 nM.

B14: F10-H1L3 (antibody, V domains shown)
VH: EVQLVQSGAEVKKPGSSVKVSCKASGYAFSSSWMNWVRQAPGQGLEWIGRIYPGDGYTHYNGMFKGRASLTADKSTSTGYMELSSLRSEDTAVFFCTRHGDFPYWYFDVWGRGTLVTVSP
VL: DIQMTQSPSTLSASVGDRVTITCRASENIDSYLAWYQQKPGRAPKLLVYAATNLAVGVPSRFSGSGSGTEYTLTISSLQSEDFATYYCQHHYSTPPTFGQGTKLEIK
notes: also called humanized F10 mAb H1L3
B14 was tested, and the “EC50 (read off the curve)” value [11] was ~3 nM.
